*1 amine or outer side, *2 acyl side, *3 side chain or, on linkers, in order; H or OH if unused. Where a SMILES comes first, the peptide text is derived from it. Bridges are numbered along the chain shown (N, C = ends). Roman numbers before positions name the chains, in order. [ ]: non-standard residue; d: D form. The star is where a group is joined. ξ: configuration not given here. TATA = O=C(CC[*:1])N1CN(C(=O)CC[*:2])CN(C(=O)CC[*:3])C1; Dolaproine = CO[C@@H]([C@@H]1CCCN1)[C@@H](C)C(=O)O; X1 = CC[C@H](C)C(C(CC(=O)[*:2])OC)N(C)[*:1]; Dil = CC[C@H](C)[C@H](NC)[C@@H](CC(=O)O)OC; 1Nal = N[C@@H](Cc1cccc2ccccc12)C(=O)O; X3 = O=C(CCCC(=O)[*:2])NCCC(=O)[*:1]; PABC = O=C(OCc1ccc(N[*:1])cc1)[*:2]; X4 = C[C@@H](N*)[C@@H](O)c1ccccc1; Hyp = O=C(O)[C@@H]1C[C@@H](O)CN1; hArg = N=C(N)NCCCC[C@H](N)C(=O)O; Cit = NC(=O)NCCC[C@H](N)C(=O)O; X2 = CC(N*)[C@@H](O)c1ccccc1; NMeV = CN[C@H](C(=O)O)C(C)C; ξNMeV = CNC(C(=O)O)C(C)C; ξV = CC(C)C(N)C(=O)O; Sar = CNCC(=O)O
Legend:
[1] = system: HT-1376 xenograft; conditions: 5 mg/kg qw, during the treatment schedule
Experimental: All data were analyzed using GraphPad Prism 5.0. P<0.05 was considered to be statistically significant.
The objective of the research is to evaluate the in vivo anti-tumor efficacy of test articles in treatment of HT-1376 xenograft in CB17-SCID mice.
The HT-1376 tumor cells were maintained in vitro as a monolayer culture in EMEM medium supplemented with 10% heat inactivated fetal bovine serum at 37° C. in an atmosphere of 5% CO2 in air. The tumor cells were routinely subcultured twice weekly by trypsin-EDTA treatment. The cells growing in an exponential growth phase were harvested and counted for tumor inoculation.
Each mouse was inoculated subcutaneously at the right flank with HT-1376 tumor cells (5×10^6) in 0.2 ml of PBS with matrigel (1:1) for tumor development. Animals were randomized when the average tumor volume reached 153-164 mm^3. The test article administration and the animal numbers in each group were shown in the experimental design table.
The HT-1376 tumor cells will be maintained in EMEM medium supplemented with 10% heat inactivated fetal bovine serum at 37° C. in an atmosphere of 5% CO2 in air. The tumor cells will be routinely subcultured twice weekly. The cells growing in an exponential growth phase will be harvested and counted for tumor inoculation. […]

[2] = BCY8245 (BT8009) injected at 3 mg/kg; MDA-MB-468 xenograft animals
Experimental: At various timepoints, animals were euthanized and plasma and tumour taken and snap frozen. Samples were analysed for MMAE.

[3] = system: A549 xenograft; test: In vivo efficacy in A549 xenograft in Balb/c nude mice (Example 9.1); conditions: mouse
Experimental: (§1) The major endpoint was to see if the tumor growth could be delayed or mice could be cured. Tumor volume was measured three times weekly in two dimensions using a caliper, and the volume was expressed in mm^3 using the formula: V=0.5 a×b^2 where a and b are the long and short diameters of the tumor, respectively. The tumor size was then used for calculations of T/C value. The T/C value (in percent) is an indication of antitumor effectiveness; T and C are the mean volumes of the treated and control groups, respectively, on a given day.
(§2) TGI was calculated for each group using the formula: TGI (%)=[1−(Ti−T0)/(Vi−V0)]×100; Ti is the average tumor volume of a treatment group on a given day, T0 is the average tumor volume of the treatment group on the day of treatment start, Vi is the average tumor volume of the vehicle control group on the same day with Ti, and V0 is the average tumor volume of the vehicle group on the day of treatment start.
(§3) A one-way ANOVA was performed to compare tumor volume among groups, and when a significant F-statistics (a ratio of treatment variance to the error variance) was obtained, comparisons between groups were carried out with Games-Howell test. All data were analyzed using GraphPad Prism 5.0. P<0.05 was considered to be statistically significant. […]

[4] = system: CTG-1771, CTG-1171, CTG-1106 and CTG-0896 PDX models; conditions: all models
Source text: To evaluate the antitumor activity of Bicycle Agent in Low Passage Champions TumorGraft Models of Human Breast, Esophageal, and Bladder Cancer in Immunocompromised mice.
Pre-study Animals: When sufficient stock animals reach 1.0-1.5 cm^3, tumors will be harvested for re-implantation into pre-study animals. Pre-study animals will be implanted unilaterally on the left flank with tumor fragments harvested from stock animals. Each animal is implanted from a specific passage lot and documented.
Study Animals: Pre-study tumor volumes are recorded for each experiment beginning seven to ten days after implantation. When tumors reach an average tumor volume of 150-300 mm^3, animals will be matched by tumor volume into treatment or control groups to be used for dosing and dosing initiated on Day 0.

[5] = system: NCI-H292 xenograft; test: In vivo efficacy in NCI-H292 xenograft (NSCLC model) in BALB/c nude mice (Examples 1, 5, 9.5); conditions: Ex 1; all treatment animals during the dosing schedule
Source text: The animals will be randomized and treatment will be started when the average tumor volume reaches approximately 158-406 mm^3.
The objective of the research is to evaluate the in vivo anti-tumor efficacy of test articles in treatment of NCI-H292 xenograft in Balb/c nude mice.

[6] = system: NCI-H526 xenograft; conditions: 5 mg/kg biw (so in the source)
Experimental: as §1, §2, §3

[7] = system: MDA-MB-468 cell line; test: HCS assay, Nectin-4 BDC binding study (Example 11); format: cell-based
Experimental: HCS assay was used in Nectin-4 BDC binding study. Cells were incubated with test agent and then washed. Detection was by a fluorescent antibody to MMAE.

Row | SMILES | animal bodyweight loss [1] | retention of MMAE in tumour versus plasma (in words) [2] | bodyweight (in words) [3] | tolerability compared with Docetaxel (in words) [4] | bodyweight (in words) [5] | animal bodyweight loss [6] | binding affinity (Kd) on MDA-MB-468 cell line (in words) [7] | retention on the cells (in words) ([7]; MDA-MB-468 cells, detection by fluorescent antibody to MMAE)
1 | CC[C@H](C)C(C(CC(=O)N1CCC[C@H]1[C@H](OC)[C@@H](C)C(=O)NC(C)[C@@H](O)c1ccccc1)OC)N(C)C(=O)[C@@H](NC(=O)C(C(C)C)N(C)C(=O)OCc1ccc(NC(=O)[C@H](CCCNC(N)=O)NC(=O)C(NC(=O)CCCC(=O)NCCC(=O)N(C)CC(=O)N(C)CC(=O)N(C)CC(=O)N(C)CC(=O)N(C)CC(=O)N(C)CC(=O)N(C)CC(=O)N(C)CC(=O)N(C)CC(=O)N(C)CC(=O)N[C@H]2CSCCC(=O)N3CN4CN(C3)C(=O)CCSC[C@H](NC(=O)[C@@H](CC(=O)O)NC(=O)[C@H](Cc3cccc5ccccc35)NC(=O)[C@@H]3CCCN3C2=O)C(=O)N[C@@H](CCSC)C(=O)N[C@@H](CCCCNC(=N)N)C(=O)N[C@@H](CC(=O)O)C(=O)N[C@@H](Cc2c[nH]c3ccccc23)C(=O)N[C@@H](CO)C(=O)N[C@@H]([C@@H](C)O)C(=O)N2CCC[C@H]2C(=O)N2C[C@H](O)C[C@H]2C(=O)N[C@@H](Cc2c[nH]c3ccccc23)C(=O)N[C@H](C(N)=O)CSCCC4=O)C(C)C)cc1)C(C)C (stereo partly drawn) [BCY8245, MMAE-PABC-Cit-Val-Glutaryl-BCY8234] (I: [Sar][Sar][Sar][Sar][Sar][Sar][Sar][Sar][Sar][Sar]CP[1Nal][dD]CM[hArg]DWSTP[Hyp]WC-NH2 / II: [ξV][Cit][PABC][ξNMeV]V[X1][Dolaproine]-X2; linker I:11-I:15-I:25 via TATA; linker I:N-II:N via X3) | over 10% | MMAE was retained in the tumour longer than in plasma | maintained the bodyweight well | better tolerated than Docetaxel | continued bodyweight loss | over 10% | – | –
2 | CC[C@H](C)[C@@H]([C@@H](CC(=O)N1CCC[C@H]1[C@H](OC)[C@@H](C)C(=O)N[C@H](C)[C@@H](O)c1ccccc1)OC)N(C)C(=O)[C@@H](NC(=O)[C@@H](NC)C(C)C)C(C)C [MMAE, Monomethyl auristatin E] (H-[NMeV]V[Dil][Dolaproine]-X4) | – | – | – | – | – | – | almost no detectable binding affinity | minimal retention

Source: patent publication US11453702B2, “Bicyclic peptide ligands specific for Nectin-4” (priority 2018, dated 2022)
